Source: the nanobody polyreactivity screen of Harvey et al. (2022)

Assay: yeast display, Sf9 membrane polyspecificity reagent, FACS + sequencing; frameworks hold sequencing errors
Summary of the method: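 Galactose induction of a Saccharomyces cerevisiae BJ5465 synthetic nanobody display library ran 36–48 hours. The cells were then stained for 1 hour at 4 °C with 10% biotinylated, detergent-solubilized Sf9 membrane reagent, pulled down on streptavidin microbeads and FACS-sorted into low and high (top ~1%) gates on expression and reagent-binding fluorescence. Labels for polyreactivity follow the gate of origin.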

| Sequence | polyreactivity (PSR sort gate) |
| --- | --- |
| QVQIVESGGGLVQAGGSLRLSCAASGSTFYPNAMGWYRQAPGKERELVAAISRGTRTKYADSVKGRFTISRDNAKNTVYLQINSLKPEDTAVYYCAADTGKGLDWGQGTHVTVSS | high polyreactivity |
| QVQIVESGGGLVQAGGSLRLSCAASGYIFYPYTMGWYRQAPVKERQLVAAITWSGSTYYADSVKGRFTISRDNAKNTVYLQMNSLKPEDTAVYYCARESDWWREFPYDYWGHGTQVTVSS | low polyreactivity |
| QVQIVESGGGLVQAGGSLRLSCAASGYIVRNAMGWYRQAPGKERELVAAISRRGGRTYYADSVKGRFTISRDNAKNTVYLQMHSLKPEDTAVYYCNKLPGTPRSLATGDYWGQGTQVTVSS | high polyreactivity |
| QVQIVESGGGLVQAGGSLRLSCADSGRTLYRYGMGWYRQAPGKERELVDVIDRGGSTNYADSVKGRFTISRDNAKNTVYLLMNSLKPEDTAVYYCAKRWTAREPWRKGMGYWGQGTQVTVSS | high polyreactivity |
| QVQIVESGGGLVQAGGSLRLSCAPSGRIFRKYAMGWYRQAPGKERELVAAISVGGGSTRYADSVKGRFTISRDNAKNTVYLQMNSLKPEDTAVYYCAVKWFSGGYDYWGQGTQVNVSS | low polyreactivity |
| QVQIVESGGGLVQAGGSLRLSCDASGRIFTAYAMGWYRQAPGKERELVAAISSGDSTYYAYSVKGRFSISRDNAKNTLYLQMNSLNPEDTEVYYCATCVYPDFEYDSWGQGTQVTVSA | low polyreactivity |
| QVQIVESGGGLVQAGGSLRLSCSASGSTFPFYAMGWYRQAPGKERELVAAITRSGSRTYYADSVKGRFTISRDNAKNTVFLQMNSLKPEDTAVYYFAASSTDLYFWGQGTQVTVSS | high polyreactivity |
| QVQIVESGGGLVQAGGSLRLSWASSGRIFYSNAMGRYRQAPGKERELVAAISYSGDSTYYADSVQGRFTISRDNAKNTGYFQMNSLKPEVTAVYYCAAETYVGEDYWGQGTQETVSS | high polyreactivity |
| QVQIVESGGGLVQAGGSLRLTCAASGSIFTVYAMGWYRQEPGKERELVAAISSGASTNYADTVKGRFTISRDNATNTVYLQMNSLKPEDTAVYYFAARLYARRLYDYWGQGSQVTVSS | low polyreactivity |
| QVQIVESGGGLVQAGGSLRLTCAASGSTLTIYARGWYRQAPGKERDLVAAISRSGGRTYYADSVKGRFTISRDYAKNTVYLQMNSLKPEDTAVYYCAARGWSYRSVGYMDYWGQGTQVTVSS | high polyreactivity |
| QVQIVESGGGLVQAGGSLRLTCAASGYIFTYYAMGWYRQAPWKERDLVAAISGSDGNTYYADSVKGRFTISRDNAKNTVYLQMNSLKPEDTAVYYCAKSGGLTFRSQSYDYWGQGTQVTVSS | low polyreactivity |
| QVQIVESGGGLVQAGGSLRVSCAASGFTFDENAMGWYRQAPGINYSGASTYYADSVKGRFTISRDNAKNTVYLQMNSVKQDDTAVYYCAAEVVAQMNYWGQGTQVTVSS | low polyreactivity |
| QVQIVESGGGLVQAGGSLSLSCAASGFIFSVNDMGWYRQAPGKERELVAAISRDSGSKYYADSVKGRFTISRDNAQNSVYLEMISLKPEDTAVYDCNGEGQWVWDPYGVYDDDSYNYWGQGTQVTVSS | low polyreactivity |
| QVQIVESGGGLVQAGRSLRLSCAASGSTFEFYAMGWYRQAPGKEREFVAGITSSGVTTYYADSVKGRFTISRDNAKYTVYLQMNSLKPVDTAVYYCAATDVVYSWFFLVYIPYDYWGQGTQVTVSS | low polyreactivity |
| QVQIVESGGGLVQEGGSLRLSCAASGRIFEPYDMGLYRQSPGKERELVAALRCSGGSTYYADSVKGRFTISRDNAKNTVYLQMNSLKPEDTAVYYCAKDAFGWGRVYYYRSGYWGQGTQVTVSS | high polyreactivity |
| QVQIVESGGGLVQPGCSLRLSCAASGRIFYGYAMGLYRQSPGKERELVAAITSTRGRTYYADSVKGRFTISRDNAKNTFYLQMNSLKPEDSAVYYCAKRGYTRWGLDYWGQGTQVTVSS | high polyreactivity |
| QVQIVESGGGLVQPGGILRLSCAASGSTSQPYDMGWYRQAPGKEWELVASITKGRITYYADSVKGRFTISRDNAKNTVYLQMNSRKPEDTAVYYCNADNVFEGYDGRSARASYRYYSWGQGTQVTVSS | low polyreactivity |
| QVQIVESGRGLFQAGGSLRLSCAASGSIFRFNVMGWYRPATGKECELVASISDSGDNTNYADSVKGRFTISGDNAKNPVDLLMNSLKPEDTAVYYCAARGSRWYIAVDYRGQGTQVTVSS | low polyreactivity |
| QVQIVESGRGLVQAGGSLRLSCAASGLTFARNAMGWSRPAPGKQRELVAAITSGASTTYADSVKGRITISRDNAMNTVSVQMNSLKPEDTAVYYCAAPGYWVRTYGGWSRLDYWGQGTQVTVSS | high polyreactivity |
| QVQIVESGVGLVQAGGSLSLSCAASGIIIHSNAMGWYRQAPGKERELVAAITSSGGSKYYADSVKGRFTISRDNAKNTVYLQMNSLKPVDTAVYYCAVVTILVYRYVVPYDYWGHGTQVTVSS | high polyreactivity |
| QVQIVESRGGLVQAGGSLRLSCAASGRILYLYAMGWYRQAPGKERELVARISQRDGSTYYADSVKGRFTISRDNAKNNDYLHMNSLKPEDTAVYYCNAVFSRGSYGYSYDYWGQGTQVTVSS | low polyreactivity |
| QVQIVESRGGLVQAGGSLSLSCAASGRIFDYYAMGWYRQPPGKERELVAAISSSVGNTYYADSVKGRFTISRDNSKNTVYLQMNSLKPEVTAVYYCADYSYVRSSYEVEYDYWGQGTQVTVSS | low polyreactivity |
| QVQIVESRVGLVQAGGSLRLSCAASGLTFYYYAMGWYRQAPGKERELVAAIDGSGGITYYEDSLKARFTISRDNEKNTVYLQMNSLKPEDTAVYYCAAERVVGDAYDYWGQGTQVTVSS | high polyreactivity |
| QVQIVETGGGLVQAGGSLRLSCDASGSIFPDYAKGWYRQAPRKERELLASISWDGGSTYYADSVKGRFTISRDNAKNTVYLQMNSLKPEDTAVYYCATEWLVGGGVTVDYWGQGTQVSVSS | low polyreactivity |
| QVQLAESGAGLVQAGGSLRLSCAASGFTFFPYAMGWYIQAPGKERELVAGITYNGGSTYYADSVKGRFTISRDNAKNTVYLQMNSLKPEDTAVYYCNAGRIGGFDWGQGTQVTVSS | low polyreactivity |
| QVQLAESGGGLVQAGGSLRLSCSASGSTFVAYAMGWYRQAPGKERELVAAITRSGGSTYYADSVKGRFTISRDNAKNTVYLQMNSLKPEDTAVFYCAARHYRSRDGYWGQGTQVTVSS | high polyreactivity |
| QVQLDESGGRLVQAGGSLRLSCAASGSIFKVNAMGWYRQAPGKERELVAVISKRGGSTYYADSVKGRFTISRDHAKNTVYLQMNSLKPEDTAVYYCAAGKAPPSLRWVARIGKYEYWGQGTQVTVSS | low polyreactivity |
| QVQLEDSGGGLFQAGGSLRLSCAASGNTFPVSYTMGWYIQAHRKEREFVAAISKDGGRTYYADSVKGRFTISRDNAKNTVYLQMNSLKPEDTAVYYCAARYSSSRGLSSEYWGQCTQVTVSS | high polyreactivity |
| QVQLEDSGGGLVQAGGSLPLSCAASGSIFVQYDMGWYIQAPGKERELVAAINDSGDITYYADSVKARFTISRDNAKNTIYLQMNSLKPEDTAVYYCAASAAYYGFYKSVTYDYWGQGTQVTVSS | low polyreactivity |
| QVQLEDSGGGLVQAGGSLRLICAASGSIIGTKAMGWYRQAPGKERELVAAIHWSGGTTYYADSVKGRFTISRDNAKNTVYFQMNSLKPDDTPVYDCATVFFVLPPTRFDAWGQGTLVTVSS | low polyreactivity |
